Reference: patent publication US9029508 (dated 2015)

B1: DVD453 DLL4 arm (antibody, V domains shown)
VH: QVQLVQSGAEVKKPGASVKISCKASGYSFTAYYIHWVKQAPGQGLEWIGYISSYNGATNYNQKFKGRVTFTTDTSTSTAYMELRSLRSDDTAVYYCARDYDYDVGMDYWGQGTLVTVSS
VL: DIVMTQSPDSLAVSLGERATISCRASESVDNYGISFMKWFQQKPGQPPKLLIYAASNQGSGVPDRFSGSGSGTDFTLTISSLQAEDVAVYYCQQSKEVPWTFGGGTKVEIKR
modifications: DVD-Ig outer
B2: DVD455 DLL4 arm (antibody, V domains shown)
VH: QVQLVQSGAEVKKPGASVKISCKASGYSFTAYYIHWVKQAPGQGLEWIGYISSYNGATNYNQKFKGRVTFTTDTSTSTAYMELRSLRSDDTAVYYCARDYDYDVGMDYWGQGTLVTVSS
VL: DIVMTQSPDSLAVSLGERATISCRASESVDNYGISFMKWFQQKPGQPPKLLIYAASNQGSGVPDRFSGSGSGTDFTLTISSLQAEDVAVYYCQQSKEVPWTFGGGTKVEIKR
modifications: DVD-Ig outer
B3: DVD444 DLL4 arm (antibody, V domains shown)
VH: QVQLVQSGAEVKKPGASVKISCKASGYSFTAYYIHWVKQAPGQGLEWIGYISSYNGATNYNQKFKGRVTFTTDTSTSTAYMELRSLRSDDTAVYYCARDYDYDVGMDYWGQGTLVTVSS
VL: DIVMTQSPDSLAVSLGERATISCRASESVDNYGISFMKWFQQKPGQPPKLLIYAASNQGSGVPDRFSGSGSGTDFTLTISSLQAEDVAVYYCQQSKEVPWTFGGGTKVEIKR
modifications: DVD-Ig inner
B4: DVD457 DLL4 arm (antibody, V domains shown)
VH: QVQLVQSGAEVKKPGASVKISCKASGYSFTAYYIHWVKQAPGQGLEWIGYISSYNGATNYNQKFKGRVTFTTDTSTSTAYMELRSLRSDDTAVYYCARDYDYDVGMDYWGQGTLVTVSS
VL: DIVMTQSPDSLAVSLGERATISCRASESVDNYGISFMKWFQQKPGQPPKLLIYAASNQGSGVPDRFSGSGSGTDFTLTISSLQAEDVAVYYCQQSKEVPWTFGGGTKVEIKR
modifications: DVD-Ig outer
B5: DVD490 DLL4 arm (antibody, V domains shown)
VH: EVQLQQSGPELVKPGASVKMSCKASGYTFTSYVINWVKQKPGQGLEWIGLINPYNDGTKYNEKFKVKATLTSDKSSSTAYMELSSLTSEDSAVYYCASYYYGSRYYFDYWGQGTTLTVSS
VL: DIQMTQSSSYLSVSLGGRVTITCKASDHINNWLAWYQQKPGNAPRLLISGATSLETGVPSRFSGSGSGKDYTLSITSLQTEDVATYYCQQYWSIPLTFGAGTKLELKR
modifications: DVD-Ig inner
B6: DVD520 DLL4 arm (antibody, V domains shown)
VH: EVQLQQSGPELEKPGASVKISCKASGYSFTGYNMNWVKQSNGKSLEWIGNIDPYFGGTNYNQKFKGKATLTVDKSSSTAYMQLKSLTSEDSAVYYCARNYDYDGGCFDYWGQGTTLTVSS
VL: QAVVTQESALTTSPGETVTLTCRSSTGAVTTSNYANWVQEKPDHLFTGLIGGTNNRAPGVPARFSGSLIGDKAALTITGAQTEDEAIYFCALWYSNHWVFGGGTKLTVLG
modifications: DVD-Ig inner
B7: DVD508 DLL4 arm (antibody, V domains shown)
VH: EVQLQQSGPELVKPGASVKMSCKASGYTFTSYVINWVKQKPGQGLEWIGLINPYNDGTKYNEKFKVKATLTSDKSSSTAYMELSSLTSEDSAVYYCASYYYGSRYYFDYWGQGTTLTVSS
VL: DIQMTQSSSYLSVSLGGRVTITCKASDHINNWLAWYQQKPGNAPRLLISGATSLETGVPSRFSGSGSGKDYTLSITSLQTEDVATYYCQQYWSIPLTFGAGTKLELKR
modifications: DVD-Ig inner
B8: DVD473 DLL4 arm (antibody)
chain 1: EVQLVESGGGLVQPGGSLRLSCAASGFTFTDNWISWVRQAPGKGLEWVGYISPNSGFTYYADSVKGRFTISADTSKNTAYLQMNSLRAEDTAVYYCARDNFGGYFDYWGQGTLVTVSS
chain 2: DIQMTQSPSSLSASVGDRVTITCRASQDVSTAVAWYQQKPGKAPKLLIYSASFLYSGVPSRFSGSGSGTDFTLTISSLQPEDFATTYYCQQSYTGTVTFGQGTKVEIKR
modifications: DVD-Ig outer
B9: DVD495 DLL4 arm (antibody, V domains shown)
VH: EVQLQQSGPELVKPGASVKMSCKASGYTFTSYVINWVKQKPGQGLEWIGLINPYNDGTKYNEKFKVKATLTSDKSSSTAYMELSSLTSEDSAVYYCASYYYGSRYYFDYWGQGTTLTVSS
VL: DIQMTQSSSYLSVSLGGRVTITCKASDHINNWLAWYQQKPGNAPRLLISGATSLETGVPSRFSGSGSGKDYTLSITSLQTEDVATYYCQQYWSIPLTFGAGTKLELKR
modifications: DVD-Ig outer
B10: DVD475 DLL4 arm (antibody)
chain 1: EVQLVESGGGLVQPGGSLRLSCAASGFTFTDNWISWVRQAPGKGLEWVGYISPNSGFTYYADSVKGRFTISADTSKNTAYLQMNSLRAEDTAVYYCARDNFGGYFDYWGQGTLVTVSS
chain 2: DIQMTQSPSSLSASVGDRVTITCRASQDVSTAVAWYQQKPGKAPKLLIYSASFLYSGVPSRFSGSGSGTDFTLTISSLQPEDFATTYYCQQSYTGTVTFGQGTKVEIKR
modifications: DVD-Ig outer
B11: DVD446 DLL4 arm (antibody, V domains shown)
VH: QVQLVQSGAEVKKPGASVKISCKASGYSFTAYYIHWVKQAPGQGLEWIGYISSYNGATNYNQKFKGRVTFTTDTSTSTAYMELRSLRSDDTAVYYCARDYDYDVGMDYWGQGTLVTVSS
VL: DIVMTQSPDSLAVSLGERATISCRASESVDNYGISFMKWFQQKPGQPPKLLIYAASNQGSGVPDRFSGSGSGTDFTLTISSLQAEDVAVYYCQQSKEVPWTFGGGTKVEIKR
modifications: DVD-Ig inner
B12: DVD522 DLL4 arm (antibody, V domains shown)
VH: EVQLQQSGPELEKPGASVKISCKASGYSFTGYNMNWVKQSNGKSLEWIGNIDPYFGGTNYNQKFKGKATLTVDKSSSTAYMQLKSLTSEDSAVYYCARNYDYDGGCFDYWGQGTTLTVSS
VL: QAVVTQESALTTSPGETVTLTCRSSTGAVTTSNYANWVQEKPDHLFTGLIGGTNNRAPGVPARFSGSLIGDKAALTITGAQTEDEAIYFCALWYSNHWVFGGGTKLTVLG
modifications: DVD-Ig inner
B13: DVD507 DLL4 arm (antibody, V domains shown)
VH: EVQLQQSGPELVKPGASVKMSCKASGYTFTSYVINWVKQKPGQGLEWIGLINPYNDGTKYNEKFKVKATLTSDKSSSTAYMELSSLTSEDSAVYYCASYYYGSRYYFDYWGQGTTLTVSS
VL: DIQMTQSSSYLSVSLGGRVTITCKASDHINNWLAWYQQKPGNAPRLLISGATSLETGVPSRFSGSGSGKDYTLSITSLQTEDVATYYCQQYWSIPLTFGAGTKLELKR
modifications: DVD-Ig outer
B14: DVD513 DLL4 arm (antibody, V domains shown)
VH: EVQLQQSGPELEKPGASVKISCKASGYSFTGYNMNWVKQSNGKSLEWIGNIDPYFGGTNYNQKFKGKATLTVDKSSSTAYMQLKSLTSEDSAVYYCARNYDYDGGCFDYWGQGTTLTVSS
VL: QAVVTQESALTTSPGETVTLTCRSSTGAVTTSNYANWVQEKPDHLFTGLIGGTNNRAPGVPARFSGSLIGDKAALTITGAQTEDEAIYFCALWYSNHWVFGGGTKLTVLG
modifications: DVD-Ig outer
B15: DVD527 DLL4 arm (antibody, V domains shown)
VH: EVQLQQSGPELEKPGASVKISCKASGYSFTGYNMNWVKQSNGKSLEWIGNIDPYFGGTNYNQKFKGKATLTVDKSSSTAYMQLKSLTSEDSAVYYCARNYDYDGGCFDYWGQGTTLTVSS
VL: QAVVTQESALTTSPGETVTLTCRSSTGAVTTSNYANWVQEKPDHLFTGLIGGTNNRAPGVPARFSGSLIGDKAALTITGAQTEDEAIYFCALWYSNHWVFGGGTKLTVLG
modifications: DVD-Ig outer
B16: DVD472 DLL4 arm (antibody)
chain 1: EVQLVESGGGLVQPGGSLRLSCAASGFTFTDNWISWVRQAPGKGLEWVGYISPNSGFTYYADSVKGRFTISADTSKNTAYLQMNSLRAEDTAVYYCARDNFGGYFDYWGQGTLVTVSS
chain 2: DIQMTQSPSSLSASVGDRVTITCRASQDVSTAVAWYQQKPGKAPKLLIYSASFLYSGVPSRFSGSGSGTDFTLTISSLQPEDFATTYYCQQSYTGTVTFGQGTKVEIKR
modifications: DVD-Ig inner
B17: DVD474 DLL4 arm (antibody)
chain 1: EVQLVESGGGLVQPGGSLRLSCAASGFTFTDNWISWVRQAPGKGLEWVGYISPNSGFTYYADSVKGRFTISADTSKNTAYLQMNSLRAEDTAVYYCARDNFGGYFDYWGQGTLVTVSS
chain 2: DIQMTQSPSSLSASVGDRVTITCRASQDVSTAVAWYQQKPGKAPKLLIYSASFLYSGVPSRFSGSGSGTDFTLTISSLQPEDFATTYYCQQSYTGTVTFGQGTKVEIKR
modifications: DVD-Ig inner
B18: DVD459 DLL4 arm (antibody, V domains shown)
VH: QVQLVQSGAEVKKPGASVKISCKASGYSFTAYYIHWVKQAPGQGLEWIGYISSYNGATNYNQKFKGRVTFTTDTSTSTAYMELRSLRSDDTAVYYCARDYDYDVGMDYWGQGTLVTVSS
VL: DIVMTQSPDSLAVSLGERATISCRASESVDNYGISFMKWFQQKPGQPPKLLIYAASNQGSGVPDRFSGSGSGTDFTLTISSLQAEDVAVYYCQQSKEVPWTFGGGTKVEIKR
modifications: DVD-Ig outer
B19: DVD463 DLL4 arm (antibody, V domains shown)
VH: QVQLVQSGAEVKKPGASVKISCKASGYSFTAYYIHWVKQAPGQGLEWIGYISSYNGATNYNQKFKGRVTFTTDTSTSTAYMELRSLRSDDTAVYYCARDYDYDVGMDYWGQGTLVTVSS
VL: DIVMTQSPDSLAVSLGERATISCRASESVDNYGISFMKWFQQKPGQPPKLLIYAASNQGSGVPDRFSGSGSGTDFTLTISSLQAEDVAVYYCQQSKEVPWTFGGGTKVEIKR
modifications: DVD-Ig outer
B20: DVD448 DLL4 arm (antibody, V domains shown)
VH: QVQLVQSGAEVKKPGASVKISCKASGYSFTAYYIHWVKQAPGQGLEWIGYISSYNGATNYNQKFKGRVTFTTDTSTSTAYMELRSLRSDDTAVYYCARDYDYDVGMDYWGQGTLVTVSS
VL: DIVMTQSPDSLAVSLGERATISCRASESVDNYGISFMKWFQQKPGQPPKLLIYAASNQGSGVPDRFSGSGSGTDFTLTISSLQAEDVAVYYCQQSKEVPWTFGGGTKVEIKR
modifications: DVD-Ig inner
B21: DVD482 DLL4 arm (antibody)
chain 1: EVQLVESGGGLVQPGGSLRLSCAASGFTFTDNWISWVRQAPGKGLEWVGYISPNSGFTYYADSVKGRFTISADTSKNTAYLQMNSLRAEDTAVYYCARDNFGGYFDYWGQGTLVTVSS
chain 2: DIQMTQSPSSLSASVGDRVTITCRASQDVSTAVAWYQQKPGKAPKLLIYSASFLYSGVPSRFSGSGSGTDFTLTISSLQPEDFATTYYCQQSYTGTVTFGQGTKVEIKR
modifications: DVD-Ig inner
B22: DVD500 DLL4 arm (antibody, V domains shown)
VH: EVQLQQSGPELVKPGASVKMSCKASGYTFTSYVINWVKQKPGQGLEWIGLINPYNDGTKYNEKFKVKATLTSDKSSSTAYMELSSLTSEDSAVYYCASYYYGSRYYFDYWGQGTTLTVSS
VL: DIQMTQSSSYLSVSLGGRVTITCKASDHINNWLAWYQQKPGNAPRLLISGATSLETGVPSRFSGSGSGKDYTLSITSLQTEDVATYYCQQYWSIPLTFGAGTKLELKR
modifications: DVD-Ig inner

Target: DLL4 (human, UniProt Q9NR61)
Experiment: ELISA

DLL4, sequence (Q9NR61 27-524): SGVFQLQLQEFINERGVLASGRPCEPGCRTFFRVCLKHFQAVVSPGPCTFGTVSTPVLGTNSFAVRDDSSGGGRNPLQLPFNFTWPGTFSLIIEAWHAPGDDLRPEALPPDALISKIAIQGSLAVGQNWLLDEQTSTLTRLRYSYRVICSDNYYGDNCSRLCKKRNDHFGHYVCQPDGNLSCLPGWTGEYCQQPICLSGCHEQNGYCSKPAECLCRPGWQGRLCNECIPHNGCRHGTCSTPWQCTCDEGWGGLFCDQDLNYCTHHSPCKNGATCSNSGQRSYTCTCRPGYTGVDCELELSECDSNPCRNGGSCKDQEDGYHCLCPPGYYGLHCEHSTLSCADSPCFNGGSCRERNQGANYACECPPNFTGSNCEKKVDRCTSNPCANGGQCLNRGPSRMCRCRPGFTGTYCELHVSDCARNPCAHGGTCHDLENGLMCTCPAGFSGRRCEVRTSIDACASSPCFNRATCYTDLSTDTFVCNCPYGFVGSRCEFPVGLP

Which EC50 does the source give for B1 here?
The EC50 was 0.09 nM.

Which EC50 does the source give for B2 here?
Its EC50 is 0.24 nM.

Which EC50 does the source give for B3 here?
The EC50 was 30.5 nM.

With B4 as the binder, how does the EC50 read?
The EC50 was 0.13 nM.

Which EC50 does the source give for B5 here?
The EC50 was 9.27 nM.

Which EC50 does the source give for B6 here?
Its EC50 is 17.3 nM.

Which EC50 does the source give for B7 here?
The EC50 was 0.61 nM.

How did the EC50 turn out when B8 was run?
The EC50 was 1.8 nM.

With B9 as the binder, how does the EC50 read?
The EC50 was 0.33 nM.

How did the EC50 turn out when B10 was run?
The EC50 was 0.23 nM.

With B11 as the binder, how does the EC50 read?
Its EC50 is 13.9 nM.

B12 was tested. Which EC50 did it give?
Its EC50 is 0.48 nM.

B13 was tested. Which EC50 did it give?
The EC50 was 0.71 nM.

With B14 as the binder, how does the EC50 read?
Its EC50 is 0.66 nM.

Which EC50 does the source give for B15 here?
The EC50 was 0.2 nM.

How did the EC50 turn out when B16 was run?
Its EC50 is 2.78 nM.

How did the EC50 turn out when B17 was run?
The EC50 was 0.57 nM.

B18 was tested. Which EC50 did it give?
Its EC50 is 0.26 nM.

B19 was tested. Which EC50 did it give?
The EC50 was 0.5 nM.

For B20, which EC50 is on record?
The EC50 was 0.41 nM.

For B21, which EC50 is on record?
The EC50 was 0.36 nM.

How did the EC50 turn out when B22 was run?
The EC50 was 0.57 nM.
